These results are taken from publication PMC11829961 (Nature Communications, 2025).

Series [1] deals with T1, IL-36R (20-333)-His6-Avi (human, UniProt Q9HB29 20-333, biotin on the Avi tag (in vitro, BirA)).
T1 sequence (looked up): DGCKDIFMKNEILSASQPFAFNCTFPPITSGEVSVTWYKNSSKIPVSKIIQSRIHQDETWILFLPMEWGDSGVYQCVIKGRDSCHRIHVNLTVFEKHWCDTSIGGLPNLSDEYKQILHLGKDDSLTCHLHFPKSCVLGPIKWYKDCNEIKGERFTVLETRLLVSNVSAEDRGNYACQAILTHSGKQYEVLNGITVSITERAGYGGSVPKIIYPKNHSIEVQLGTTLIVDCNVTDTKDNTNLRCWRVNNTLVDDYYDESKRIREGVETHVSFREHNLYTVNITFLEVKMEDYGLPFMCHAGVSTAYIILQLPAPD
The series can be described thus: SPR. In general terms: In SPR one partner is held on a chip, and binding of the other changes the refractive index at the surface.

Series [2] concerns the target IL-36R (20-220)-His6-Avi (human, UniProt Q9HB29, biotin on the Avi tag (in vitro, BirA)). As to the kind of experiment: crystal structure.
For series [3] the following is noted: patients who had received at least one dose; cited from earlier work.

What is called Kd is the concentration at which binding is half-saturated. Low values mean higher affinity, high ones lower affinity.

B1: Human IL-36α (aa 6–158) (ligand, UniProt Q9UHA7 6-158, looked up)
chain: KIDTPQQGSIQDINHRVWVLQDQTLIAVPRKDRMSPVTIALISCRHVETLEKDRGNPIYLGLNGLNLCLMCAKVGDQPTLQLKEKDIMDLYNQPEPVKSFLFYHSQSGRNSTFESVAFPGWFIAVSSEGGCPLILTQELGKANTTDFGLTMLF
In series [1], B1 registered a Kd of approximately 600 nM.

B2: spesolimab-Fab (Fab, V domains shown)
VH: QVQLVQSGAEVKKPGASVKVSCKASGYSFTSSWIHWVKQAPGQGLEWMGEINPGNVRTNYNENFRNKVTMTVDTSISTAYMELSRLRSDDTAVYYCTVVFYGEPYFPYWGQGTLVTVSS
VL: QIVLTQSPGTLSLSPGERATMTCTASSSVSSSYFHWYQQKPGQAPRLWIYRTSRLASGVPDRFSGSGSGTDFTLTISRLEPEDAATYYCHQFHRSPLTFGAGTKLEIK
In the case of B2, the binding result in series [2] is “binds”.

B3: spesolimab: IL-36R blocking antibody, positive control; approved for flares of GPP (antibody, chains of the INN, looked up, V domains shown)
VH: B2 VH
VL: B2 VL
As for B3, the “anti-drug antibodies observed, patients” value in series [3] is listed as 23 out of 50.
